Assay results as given in publication PMC10397247.
Each block holds one binder with its values, some of them ahead of it.

How the values were obtained:
[1] = target: T1, 4H687-bA; experiment: two-hybrid library CCNG1;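 also: natural log of median RNA to DNA barcode read ratio; higher means stronger binding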
T1 chain: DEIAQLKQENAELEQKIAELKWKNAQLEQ

[2] = target: T2, 4H797-bA; experiment: two-hybrid library CCNG1;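 also: natural log of median RNA to DNA barcode read ratio; higher means stronger binding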
T2 chain: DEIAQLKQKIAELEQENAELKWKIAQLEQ

[3] = target: T3, 4H3843-bA; experiment: two-hybrid library CCNG1;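 also: natural log of median RNA to DNA barcode read ratio; higher means stronger binding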
T3 chain: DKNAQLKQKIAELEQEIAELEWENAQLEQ

[4] = target: T4, 4H72-bA; experiment: two-hybrid library CCNG1;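 also: natural log of median RNA to DNA barcode read ratio; higher means stronger binding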
T4 chain: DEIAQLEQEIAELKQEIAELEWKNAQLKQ

[5] = target: T5, 4H883-bA; experiment: two-hybrid library CCNG1;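 also: natural log of median RNA to DNA barcode read ratio; higher means stronger binding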
T5 chain: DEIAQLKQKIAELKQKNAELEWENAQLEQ

[6] = target: T6, 4H370-bA; experiment: two-hybrid library CCNG1;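 also: natural log of median RNA to DNA barcode read ratio; higher means stronger binding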
T6 chain: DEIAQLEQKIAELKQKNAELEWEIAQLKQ

[7] = target: T7, 4H462-bA; experiment: two-hybrid library CCNG1
T7 chain: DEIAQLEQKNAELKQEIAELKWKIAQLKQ

[8] = target: T8, 4H953-bA; experiment: two-hybrid library CCNG1
T8 chain: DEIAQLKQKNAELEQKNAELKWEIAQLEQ

[9] = target: T9, 4H4001-bA; experiment: two-hybrid library CCNG1
T9 chain: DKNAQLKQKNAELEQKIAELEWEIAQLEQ

[10] = target: T10, 4H918-bA; experiment: two-hybrid library CCNG1
T10 chain: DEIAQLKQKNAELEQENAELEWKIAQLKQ

[11] = target: T11, 4H3782-bA; experiment: two-hybrid library CCNG1
T11 chain: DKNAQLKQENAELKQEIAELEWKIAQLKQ

[12] = target: T12, 4H607-bA; experiment: two-hybrid library CCNG1
T12 chain: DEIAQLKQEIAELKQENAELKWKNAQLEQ

[13] = target: T13, 4H3606-bA; experiment: two-hybrid library CCNG1; settings: mean of both orientations
T13 chain: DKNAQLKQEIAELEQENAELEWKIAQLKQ

[14] = target: T14, 4H967-bA; experiment: two-hybrid library CCNG1
T14 chain: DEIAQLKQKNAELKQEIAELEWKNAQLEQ

[15] = target: T15, 4H568-bA; experiment: two-hybrid library CCNG1
T15 chain: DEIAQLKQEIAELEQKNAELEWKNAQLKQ

[16] = target: T16, 4H2109-AA; experiment: two-hybrid library CCmax; settings: mean of both orientations
T16 chain: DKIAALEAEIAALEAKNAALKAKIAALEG

[17] = target: T17, 4H3381-AA; experiment: two-hybrid library CCmax
T17 chain: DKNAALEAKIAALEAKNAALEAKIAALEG

[18] = target: T18, 4H94-AA; experiment: two-hybrid library CCmax; settings: mean of both orientations
T18 chain: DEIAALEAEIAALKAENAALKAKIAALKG

[19] = target: T19, 4H850-AA; experiment: two-hybrid library CCmax; settings: mean of both orientations
T19 chain: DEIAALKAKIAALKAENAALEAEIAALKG

[20] = target: T20, 4H3697-AA; experiment: two-hybrid library CCmax; settings: mean of both orientations
T20 chain: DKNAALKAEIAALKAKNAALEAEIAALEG

[21] = target: T21, 4H3753-AA; experiment: two-hybrid library CCmax; settings: mean of both orientations
T21 chain: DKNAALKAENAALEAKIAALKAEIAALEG

[22] = target: T22, 4H909-AA; experiment: two-hybrid library CCmax; settings: mean of both orientations
T22 chain: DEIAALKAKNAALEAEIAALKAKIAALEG

[23] = target: T23, 4H2274-AA; experiment: two-hybrid library CCmax; settings: mean of both orientations
T23 chain: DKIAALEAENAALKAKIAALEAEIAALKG

[24] = target: T24, 4H310-AA; experiment: two-hybrid library CCmax; settings: mean of both orientations
T24 chain: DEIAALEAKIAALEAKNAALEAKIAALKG

[25] = target: T25, 4H2330-AA; experiment: two-hybrid library CCmax; settings: mean of both orientations
T25 chain: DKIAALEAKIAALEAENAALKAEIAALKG

[26] = target: T26, 4H458-AA; experiment: two-hybrid library CCmax; settings: mean of both orientations
T26 chain: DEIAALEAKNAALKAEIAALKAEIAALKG

[27] = target: T27, 4H485-AA; experiment: two-hybrid library CCmax; settings: mean of both orientations
T27 chain: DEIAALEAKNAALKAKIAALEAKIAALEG

[28] = target: T28, 4H3120-AA; experiment: two-hybrid library CCmax; settings: mean of both orientations
T28 chain: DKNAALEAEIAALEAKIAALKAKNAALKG

[29] = target: T29, 4H3410-AA; experiment: two-hybrid library CCmax; settings: mean of both orientations
T29 chain: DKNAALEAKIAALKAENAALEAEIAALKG

[30] = target: T30, 4H2162-AA; experiment: two-hybrid library CCmax; settings: mean of both orientations
T30 chain: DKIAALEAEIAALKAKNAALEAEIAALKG

[31] = target: T31, 4H3016-AA; experiment: two-hybrid library CCmax; settings: mean of both orientations
T31 chain: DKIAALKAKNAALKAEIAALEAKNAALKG

[32] = target: T32, 4H2725-AA; experiment: two-hybrid library CCmax; settings: mean of both orientations
T32 chain: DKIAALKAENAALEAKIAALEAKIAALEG

[33] = target: T33, 4H3165-AA; experiment: two-hybrid library CCmax; settings: mean of both orientations
T33 chain: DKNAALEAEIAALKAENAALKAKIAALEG

[34] = target: T34, 4H930-AA; experiment: two-hybrid library CCmax; settings: mean of both orientations
T34 chain: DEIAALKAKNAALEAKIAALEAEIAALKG

[35] = target: T35, 4H3395-AA; experiment: two-hybrid library CCmax; settings: mean of both orientations
T35 chain: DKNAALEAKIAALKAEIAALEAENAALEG

[36] = target: T36, 4H2473-AA; experiment: two-hybrid library CCmax; settings: mean of both orientations
T36 chain: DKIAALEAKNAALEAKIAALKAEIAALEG

[37] = target: T37, 4H3009-AA; experiment: two-hybrid library CCmax; settings: mean of both orientations
T37 chain: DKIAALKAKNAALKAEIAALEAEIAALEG

[38] = target: T38, 4H536-AA; experiment: two-hybrid library CCmax; settings: mean of both orientations
T38 chain: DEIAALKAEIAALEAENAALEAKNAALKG

[39] = target: T39, 4H3590-AA; experiment: two-hybrid library CCmax; settings: mean of both orientations
T39 chain: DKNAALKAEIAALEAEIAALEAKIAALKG

[40] = target: T40, 4H745-AA; experiment: two-hybrid library CCmax; settings: mean of both orientations
T40 chain: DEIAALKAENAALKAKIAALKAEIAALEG

[41] = target: T41, 4H2438-AA; experiment: two-hybrid library CCmax; settings: mean of both orientations
T41 chain: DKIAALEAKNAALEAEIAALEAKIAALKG

[42] = target: T42, 4H797-AA; experiment: two-hybrid library CCmax; settings: mean of both orientations
T42 chain: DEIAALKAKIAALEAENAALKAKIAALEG

[43] = target: T43, 4H1877-AA; experiment: two-hybrid library CCmax
T43 chain: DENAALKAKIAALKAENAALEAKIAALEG

[44] = target: T44, 4H2389-AA; experiment: two-hybrid library CCmax; settings: mean of both orientations
T44 chain: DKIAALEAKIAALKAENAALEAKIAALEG

[45] = target: T45, 4H3865-AA; experiment: two-hybrid library CCmax; settings: mean of both orientations
T45 chain: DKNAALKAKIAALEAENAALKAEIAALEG

[46] = target: T46, 4H570-AA; experiment: two-hybrid library CCmax; settings: mean of both orientations
T46 chain: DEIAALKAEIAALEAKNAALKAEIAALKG

[47] = target: T47, 4H2698-AA; experiment: two-hybrid library CCmax; settings: mean of both orientations
T47 chain: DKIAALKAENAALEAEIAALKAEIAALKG

[48] = target: T48, 4H710-AA; experiment: two-hybrid library CCmax; settings: mean of both orientations
T48 chain: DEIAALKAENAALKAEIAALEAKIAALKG

[49] = target: T49, 4H891-AA; experiment: two-hybrid library CCmax; settings: mean of both orientations
T49 chain: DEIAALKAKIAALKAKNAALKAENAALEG

[50] = target: T50, 4H2865-AA; experiment: two-hybrid library CCmax; settings: mean of both orientations
T50 chain: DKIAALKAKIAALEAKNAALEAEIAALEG

[51] = target: T51, 4H629-AA; experiment: two-hybrid library CCmax; settings: mean of both orientations
T51 chain: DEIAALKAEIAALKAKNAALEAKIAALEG

[52] = target: T52, 4H2649-AA; experiment: two-hybrid library CCmax; settings: mean of both orientations
T52 chain: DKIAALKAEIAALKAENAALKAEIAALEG

[53] = target: T53, 4H2253-AA; experiment: two-hybrid library CCmax; settings: mean of both orientations
T53 chain: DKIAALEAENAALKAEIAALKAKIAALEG

[54] = target: T54, 4H3130-AA; experiment: two-hybrid library CCmax; settings: mean of both orientations
T54 chain: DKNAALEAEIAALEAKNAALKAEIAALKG

- interaction score [1]: -0.711
- interaction score [2]: -1.09
- interaction score [3]: -0.812
- interaction score [4]: -2.04
- interaction score [5]: 0.708
- interaction score [6]: 1.25
- interaction score [7]: -1.18
- interaction score [8]: 0.309
- interaction score [9]: -0.523
- interaction score [10]: -0.427
- interaction score [11]: 0.289
- interaction score [12]: -0.936
- interaction score [13]: -0.112
- interaction score [14]: 0.947
- interaction score [15]: -0.435
B1: 4H3606-bA (peptide)
chain: DKNAQLKQEIAELEQENAELEWKIAQLKQ

- interaction score [16]: 1.92
- interaction score [17]: -0.523
- interaction score [18]: 1.3
- interaction score [19]: -1.25
- interaction score [20]: -0.0749
- interaction score [21]: -1.7
- interaction score [22]: -1.84
- interaction score [23]: -1.35
- interaction score [24]: -0.467
- interaction score [25]: -1.51
- interaction score [26]: -0.933
- interaction score [27]: 0.957
- interaction score [28]: -1.28
- interaction score [29]: -1.43
- interaction score [30]: -1.25
- interaction score [31]: 0.714
- interaction score [32]: -0.897
- interaction score [33]: 0.715
- interaction score [34]: -1.46
- interaction score [35]: -1.77
- interaction score [36]: -1.47
- interaction score [37]: 1.03
- interaction score [38]: -0.101
- interaction score [39]: -0.565
- interaction score [40]: -1.08
- interaction score [41]: -1.24
- interaction score [42]: 0.589
- interaction score [43]: 0.288
- interaction score [44]: -1.07
- interaction score [45]: 0.523
- interaction score [46]: 1.9
- interaction score [47]: -1.45
- interaction score [48]: -0.752
- interaction score [49]: -1.36
- interaction score [50]: -0.796
- interaction score [51]: -0.167
- interaction score [52]: -0.409
- interaction score [53]: -1.17
- interaction score [54]: 1.82
B2: 4H1877-AA (peptide)
chain: DENAALKAKIAALKAENAALEAKIAALEG
